{"source": "paper PMC2714593", "about": "“Insights into the role of Val45 and Gln182 of Escherichia coli MutY in DNA substrate binding and specificity”", "target": "T1, MutY (EcMutY) wild type (Escherichia coli, UniProt P17802 1-350)", "T1 sequence": "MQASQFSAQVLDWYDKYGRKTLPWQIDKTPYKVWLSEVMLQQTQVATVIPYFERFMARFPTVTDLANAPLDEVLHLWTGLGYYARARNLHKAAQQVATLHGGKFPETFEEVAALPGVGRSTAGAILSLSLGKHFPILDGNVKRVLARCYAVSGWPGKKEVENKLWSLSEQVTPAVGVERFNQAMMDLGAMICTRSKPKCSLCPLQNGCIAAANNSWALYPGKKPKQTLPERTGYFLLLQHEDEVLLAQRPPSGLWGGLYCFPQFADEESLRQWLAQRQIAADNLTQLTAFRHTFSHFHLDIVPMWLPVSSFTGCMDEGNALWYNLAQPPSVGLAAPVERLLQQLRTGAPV", "experiment": "EMSA; 20 mM Tris-HCl pH 7.6, 80 mM NaCl, 1 mM DTT, 1 mM EDTA, 2.9% glycerol, 20 ng poly dI/dC per 20 ul, 0.09 nM labeled DNA, 30 min at 30 C; 4% PAGE in TBE", "conditions": "protein: recombinant; label: 5'-32P on X strand; blunt; T/G mismatch at strand 1 position 22", "data": [{"binder": "T/G 44-mer (dsDNA) DNA 1: AATTGGGCTCCTCGAGGAATTTGCCTTCTGCAGGCATGCCCCGG DNA 2: CCGGGGCATGCCTGCAGAAGGCGAATTCCTCGAGGAGCCCAATT", "values": [{"measurement": "Kd", "value": "14 ± 1", "unit": "nM"}]}]}
